Several values for one entry are separate records, joined by “and”; a condition that tells them apart may be missing. Equal values may be shown once.
How the values were obtained:
[1] = biological target: T1, cynomolgus monkey (cyno) CD22 expressed on the surface of CHO cells (cynomolgus monkey); experiment: cell-based competitive binding of 125I-labelled against unlabelled antibody on CHO cells, 4 h at 4 C, Scatchard analysis
T1 construct: residues 1-19 (signal) should be removed
T1 chain: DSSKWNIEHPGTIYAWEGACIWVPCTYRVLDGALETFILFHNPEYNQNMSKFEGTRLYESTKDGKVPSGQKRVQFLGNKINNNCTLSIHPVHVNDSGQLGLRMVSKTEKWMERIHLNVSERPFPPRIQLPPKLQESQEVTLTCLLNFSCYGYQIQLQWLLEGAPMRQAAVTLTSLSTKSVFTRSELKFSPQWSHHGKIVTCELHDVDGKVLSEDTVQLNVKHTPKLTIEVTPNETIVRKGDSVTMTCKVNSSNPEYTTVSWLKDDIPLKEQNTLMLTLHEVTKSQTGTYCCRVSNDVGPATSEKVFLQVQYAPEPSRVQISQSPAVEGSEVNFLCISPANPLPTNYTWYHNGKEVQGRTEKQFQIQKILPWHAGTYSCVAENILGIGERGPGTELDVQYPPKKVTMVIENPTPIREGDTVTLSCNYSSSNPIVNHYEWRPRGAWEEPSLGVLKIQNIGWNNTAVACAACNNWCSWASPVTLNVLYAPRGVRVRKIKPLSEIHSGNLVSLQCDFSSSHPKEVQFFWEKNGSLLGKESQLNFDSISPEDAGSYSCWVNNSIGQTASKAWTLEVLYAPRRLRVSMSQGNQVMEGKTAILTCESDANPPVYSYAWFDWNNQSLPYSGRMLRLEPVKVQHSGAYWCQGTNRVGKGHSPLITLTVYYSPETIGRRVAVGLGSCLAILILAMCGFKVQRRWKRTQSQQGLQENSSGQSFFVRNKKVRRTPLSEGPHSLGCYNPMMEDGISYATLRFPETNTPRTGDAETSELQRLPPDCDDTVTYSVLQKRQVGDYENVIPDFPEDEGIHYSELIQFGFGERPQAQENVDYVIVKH
Procedure: (§1) Briefly, CHO cells stably expressing full length human CD22 (SEQ ID NO:27) or cynomolgus monkey (cyno) CD22 (SEQ ID NO:31). […] A cell-based, competitive binding assay was performed using serially diluted, unlabeled anti-CD22 antibody. Antibodies were allowed to bind to the cells for 4 hours at 4° C. Binding affinity, KD, of the antibodies was determined in accordance with standard Scatchard analysis performed utilizing a non-linear curve fitting program (see, for example, Munson et al., Anal Biochem, 107: 220-239, 1980).

[2] = biological target: T2, CD22 expressed on the surface of BJAB-lucs cells (human, UniProt P20273 20-847); experiment: FACS on BJAB-lucs cells; biotinylated goat anti-huFc plus Streptavidin-PE
T2 construct: whole, on cells; also called CD22 expressed on BJAB-lucs cells
T2 sequence (looked up): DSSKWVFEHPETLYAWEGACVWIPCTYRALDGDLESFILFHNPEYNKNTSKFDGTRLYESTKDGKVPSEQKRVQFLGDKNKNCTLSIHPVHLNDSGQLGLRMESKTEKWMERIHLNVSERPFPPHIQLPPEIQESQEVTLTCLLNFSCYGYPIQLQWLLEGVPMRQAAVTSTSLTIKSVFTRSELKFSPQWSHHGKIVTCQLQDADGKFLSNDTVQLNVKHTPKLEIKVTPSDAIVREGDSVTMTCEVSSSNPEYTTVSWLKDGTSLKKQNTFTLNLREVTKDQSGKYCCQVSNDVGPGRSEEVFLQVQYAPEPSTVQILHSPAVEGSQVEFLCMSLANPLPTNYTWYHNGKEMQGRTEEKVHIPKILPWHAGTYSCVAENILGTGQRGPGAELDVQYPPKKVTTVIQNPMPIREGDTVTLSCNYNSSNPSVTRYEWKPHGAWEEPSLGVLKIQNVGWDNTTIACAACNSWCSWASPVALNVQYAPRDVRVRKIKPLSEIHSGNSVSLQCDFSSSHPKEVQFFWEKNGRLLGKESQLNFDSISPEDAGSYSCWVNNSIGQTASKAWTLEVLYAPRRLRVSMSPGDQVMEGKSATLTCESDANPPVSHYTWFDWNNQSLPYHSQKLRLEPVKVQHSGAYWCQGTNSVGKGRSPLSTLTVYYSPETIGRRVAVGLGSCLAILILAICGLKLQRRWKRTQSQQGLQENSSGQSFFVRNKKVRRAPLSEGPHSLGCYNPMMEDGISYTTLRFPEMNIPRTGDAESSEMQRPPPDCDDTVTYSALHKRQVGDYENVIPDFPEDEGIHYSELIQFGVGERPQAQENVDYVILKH
Source text: Anti-CD22 antibody bound to the cell surface was detected using biotinylated goat anti-huFc plus Streptavidin-PE.

[3] = biological target: T3, human CD22-beta-ECD-His tagged soluble antigen (human, UniProt P20273 22-681); experiment: SPR (BIACORE 3000), antibody coupled to the chip, soluble CD22-beta-ECD-His injected, 25 C
T3 construct: also called soluble CD22 extracellular domain (ECD); Soluble Human CD22
T3 sequence: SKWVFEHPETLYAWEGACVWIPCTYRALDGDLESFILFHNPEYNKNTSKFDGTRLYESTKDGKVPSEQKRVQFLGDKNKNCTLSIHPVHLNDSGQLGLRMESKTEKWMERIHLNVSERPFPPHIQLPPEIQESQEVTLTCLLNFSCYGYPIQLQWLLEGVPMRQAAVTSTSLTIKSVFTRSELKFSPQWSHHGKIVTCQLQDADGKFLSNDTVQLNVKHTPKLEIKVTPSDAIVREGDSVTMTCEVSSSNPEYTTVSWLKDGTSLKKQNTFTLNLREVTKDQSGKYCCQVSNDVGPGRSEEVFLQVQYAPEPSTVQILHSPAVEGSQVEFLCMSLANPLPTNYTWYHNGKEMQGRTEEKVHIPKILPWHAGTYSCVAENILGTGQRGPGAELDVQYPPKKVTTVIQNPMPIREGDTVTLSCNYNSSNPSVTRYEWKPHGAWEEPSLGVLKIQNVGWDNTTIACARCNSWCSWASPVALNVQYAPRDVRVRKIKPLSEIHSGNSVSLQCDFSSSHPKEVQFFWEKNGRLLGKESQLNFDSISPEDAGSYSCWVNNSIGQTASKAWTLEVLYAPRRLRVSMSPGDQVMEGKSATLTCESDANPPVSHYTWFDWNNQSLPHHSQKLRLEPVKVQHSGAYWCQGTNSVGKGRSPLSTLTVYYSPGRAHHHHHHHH
Procedure: The binding affinity of murine and humanized 10F4 antibody for soluble CD22 extracellular domain (ECD) was determined by surface plasmon resonance measurement using a BIACORE® 3000 system (Biacore, Inc., Piscataway, N.J.). Briefly, carboxymethylated dextran biosensor chips (CMS, Biacore Inc.) were activated with N-ethyl-N′-(3-dimethylaminopropyl)-carbodiimide hydrochloride (EDC) and N-hydroxysuccinimide (NHS) according to the supplier's instructions. These activated chips were coated with anti-CD22 IgG1 antibody 10F4 (murine or humanized) by dilution to 5 μg/ml with 10 mM sodium acetate, pH 4.8, before injection at a flow rate of […] to achieve approximately 500 response units (RU) of coupled antibody. Next, 1M ethanolamine was injected to block unreacted groups. […] Association rates (kₒₙ) and dissociation rates (koff) were calculated using a simple one-to-one Langmuir binding model (BIAevaluation Software version 3.2). The equilibrium dissociation constant (Kd) was calculated as the ratio koff/kₒₙ. Anti-CD22 antibody, RFB4, was used as a control (Chemicon International, Inc., Temecula, Calif., catalog no. CBL147).

[4] = biological target: T1, cynomolgus monkey (cyno) CD22 expressed …; experiment: cell-based competitive binding of 125I-labelled against unlabelled antibody on CHO cells, Scatchard analysis; repeated assays
Procedure: as §1

B1: humanized 10F4 version 2 antibody (antibody, human IgG1, kappa)
heavy: not shown
light: DIQMTQSPSSLSASVGDRVTITCRSSQSIVHSVGNTFLEWYQQKPGKAPKLLIYKVSNRFSGVPSRFSGSGSGTDFTLTISSLQPEDFATYYCFQGSQFPYTFGQGTKVEIKRTVAAPSVFIFPPSDEQLKSGTASVVCLLNNFYPREAKVQWKVDNALQSGNSQESVTEQDSKDSTYSLSSTLTLSKADYEKHKVYACEVTHQGLSSPVTKSFNRGEC
notes: Differs from hu10F4v1 by N28V (Kabat) in HVR-L1; Mature protein identical to hu10F4v3; also called humanized 10F4v2; hu10F4v2
Kd [1]: 2.1 nM

B2: thio hu LC(V205C) 10F4v3-MCvcPAB-MMAE (antibody, human IgG1, kappa)
heavy: not shown
light: DIQMTQSPSSLSASVGDRVTITCRSSQSIVHSVGNTFLEWYQQKPGKAPKLLIYKVSNRFSGVPSRFSGSGSGTDFTLTISSLQPEDFATYYCFQGSQFPYTFGQGTKVEIKRTVAAPSVFIFPPSDEQLKSGTASVVCLLNNFYPREAKVQWKVDNALQSGNSQESVTEQDSKDSTYSLSSTLTLSKADYEKHKVYACEVTHQGLSSPCTKSFNRGEC
modifications: MC-val-cit-PAB-MMAE on the engineered Cys at Kabat position 205 (sequential position 210)
notes: Cysteine engineered IgG1 (ThioMab) drug conjugate; also called thio hu LC-10F4v3-MC-val-cit-PAB-MMAE; Thio 10F4v3-LC(V205C)-MCvcPAB-MMAE
binding result [2]: binds

B3: Chimeric 10F4 (antibody, V domains shown)
VH: QVQLQQSGPELVKPGASVKISCKASGYEFSRSWMNWVKQRPGQGREWIGRIYPGDGDTNYSGKFKGKATLTADKSSSTAYMQLSSLTSVDSAVYFCARDGSSWDWYFDVWGAGTTVTVSS
VL: DILMTQTPLSLPVSLGDQASISCRSSQSIVHSNGNTFLEWYLQKPGQSPKLLIYKVSNRFSGVPDRFSGSGSGTDFTLKISRVEAEDLGVYYCFQGSQFPYTFGGGTKVEIK
notes: also called murine chimeric 10F4
Kd [3]: 16 nM | koff [3]: 0.00042 s⁻¹ | kon [3]: 26000 M⁻¹ s⁻¹

B4: humanized 10F4 version 1 antibody (antibody, IgG1, V domains shown)
VH: EVQLVESGGGLVQPGGSLRLSCAASGYEFSRSWMNWVRQAPGKGLEWVGRIYPGDGDTNYSGKFKGRFTISADTSKNTAYLQMNSLRAEDTAVYYCARDGSSWDWYFDVWGQGTLVTVSS
VL: DIQMTQSPSSLSASVGDRVTITCRSSQSIVHSNGNTFLEWYQQKPGKAPKLLIYKVSNRFSGVPSRFSGSGSGTDFTLTISSLQPEDFATYYCFQGSQFPYTFGQGTKVEIKR
notes: only variable domains are tied to v1; also called humanized 10F4v1; hu10F4v1
Kd [4]: 1.4 nM and 1.8 nM

— patent publication US20130171170A1 (published 2013)
